Test system: Escherichia coli TOP10
Experiment: shrunken log2 fold change of peptide-encoding DNA abundance (4.5 h post-induction vs induction); higher = less antimicrobial activity (less host growth inhibition)
Settings: time post-induction: 4.5 h; library: site-saturation at positions 5, 18, 19, 20
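Also: peptides expressed intracellularly from a pBAD plasmid library in pooled LB shake-flask culture, induced with 0.3% L-arabinose, DNA abundance read by NGS, three biological replicates, DESeq2 with apeglm shrinkage.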

Sequence	shrunken log2 fold change
RRIRLRPPRLPRPRPRPPDSPRP	0.0353
RRIRLRPPRLPRPRPRPPDVPRP	-0.0115
RRIRLRPPRLPRPRPRPPEIPRP	0.196
RRIRLRPPRLPRPRPRPPENPRP	0.588
RRIRLRPPRLPRPRPRPPFFPRP	0.14
RRIRLRPPRLPRPRPRPPFSPRP	-0.25
RRIRLRPPRLPRPRPRPPGIPRP	-0.383
RRIRLRPPRLPRPRPRPPGPPRP	0.359
RRIRLRPPRLPRPRPRPPHAPRP	1.2
RRIRLRPPRLPRPRPRPPHFPRP	0.437
RRIRLRPPRLPRPRPRPPKNPRP	0.43
RRIRLRPPRLPRPRPRPPLKPRP	0.253
RRIRLRPPRLPRPRPRPPLTPRP	0.288
RRIRLRPPRLPRPRPRPPMMPRP	-0.149
RRIRLRPPRLPRPRPRPPMYPRP	-0.093
RRIRLRPPRLPRPRPRPPNCPRP	-0.0466
RRIRLRPPRLPRPRPRPPNSPRP	0.0409
RRIRLRPPRLPRPRPRPPPCPRP	0.846
RRIRLRPPRLPRPRPRPPPKPRP	1.8
RRIRLRPPRLPRPRPRPPPYPRP	0.388
RRIRLRPPRLPRPRPRPPQHPRP	0.197
RRIRLRPPRLPRPRPRPPQYPRP	-0.0075
RRIRLRPPRLPRPRPRPPRDPRP	0.531
RRIRLRPPRLPRPRPRPPTKPRP	0.288
RRIRLRPPRLPRPRPRPPVVPRP	0.218

Sequence	shrunken log2 fold change
RRIRLRPPRLPRPRPRPPVWPRP	0.591
RRIRLRPPRLPRPRPRPPWMPRP	0.167
RRIRLRPPRLPRPRPRPQCEPRP	-0.153
RRIRLRPPRLPRPRPRPQFMPRP	-0.462
RRIRLRPPRLPRPRPRPQGTPRP	0.0413
RRIRLRPPRLPRPRPRPQGVPRP	-0.0316
RRIRLRPPRLPRPRPRPQHGPRP	-0.0844
RRIRLRPPRLPRPRPRPQIDPRP	0.0696
RRIRLRPPRLPRPRPRPQIEPRP	-0.155
RRIRLRPPRLPRPRPRPQITPRP	-0.294
RRIRLRPPRLPRPRPRPQIYPRP	-0.17
RRIRLRPPRLPRPRPRPQKHPRP	-0.299
RRIRLRPPRLPRPRPRPQNGPRP	-0.146
RRIRLRPPRLPRPRPRPQPDPRP	-0.161
RRIRLRPPRLPRPRPRPQPIPRP	0.0892
RRIRLRPPRLPRPRPRPQPQPRP	0.396
RRIRLRPPRLPRPRPRPQPSPRP	0.169
RRIRLRPPRLPRPRPRPQQPPRP	-0.208
RRIRLRPPRLPRPRPRPQRPPRP	0.265
RRIRLRPPRLPRPRPRPQSEPRP	-0.0331
RRIRLRPPRLPRPRPRPQTWPRP	0.0171
RRIRLRPPRLPRPRPRPQVAPRP	0.0825
RRIRLRPPRLPRPRPRPQWGPRP	0.00618
RRIRLRPPRLPRPRPRPQWHPRP	-0.193
RRIRLRPPRLPRPRPRPQWVPRP	-0.0367

Sequence	shrunken log2 fold change
RRIRLRPPRLPRPRPRPQWYPRP	-0.426
RRIRLRPPRLPRPRPRPQYEPRP	-0.166
RRIRLRPPRLPRPRPRPQYGPRP	0.0165
RRIRLRPPRLPRPRPRPQYSPRP	-0.1
RRIRLRPPRLPRPRPRPRDNPRP	-0.127
RRIRLRPPRLPRPRPRPRDPPRP	0.968
RRIRLRPPRLPRPRPRPRFKPRP	0.0114
RRIRLRPPRLPRPRPRPRGYPRP	0.262
RRIRLRPPRLPRPRPRPRHNPRP	-0.521
RRIRLRPPRLPRPRPRPRICPRP	-0.237
RRIRLRPPRLPRPRPRPRIGPRP	0.0176
RRIRLRPPRLPRPRPRPRLEPRP	0.348
RRIRLRPPRLPRPRPRPRLFPRP	0.17
RRIRLRPPRLPRPRPRPRLGPRP	0.518
RRIRLRPPRLPRPRPRPRLTPRP	0.143
RRIRLRPPRLPRPRPRPRNPPRP	-0.0997
RRIRLRPPRLPRPRPRPRPCPRP	0.421
RRIRLRPPRLPRPRPRPRPHPRP	0.364
RRIRLRPPRLPRPRPRPRQFPRP	0.196
RRIRLRPPRLPRPRPRPRQGPRP	0.252
RRIRLRPPRLPRPRPRPRRCPRP	0.356
RRIRLRPPRLPRPRPRPRTCPRP	-0.258
RRIRLRPPRLPRPRPRPRTSPRP	0.288
RRIRLRPPRLPRPRPRPRVRPRP	0.325
RRIRLRPPRLPRPRPRPRVVPRP	-0.0437

Sequence	shrunken log2 fold change
RRIRLRPPRLPRPRPRPRWNPRP	-0.0729
RRIRLRPPRLPRPRPRPRWSPRP	0.129
RRIRLRPPRLPRPRPRPRYFPRP	-0.319
RRIRLRPPRLPRPRPRPSADPRP	0.07
RRIRLRPPRLPRPRPRPSALPRP	-0.0136
RRIRLRPPRLPRPRPRPSCWPRP	0.0662
RRIRLRPPRLPRPRPRPSEKPRP	-0.0219
RRIRLRPPRLPRPRPRPSGFPRP	-0.259
RRIRLRPPRLPRPRPRPSHCPRP	-0.117
RRIRLRPPRLPRPRPRPSISPRP	-0.655
RRIRLRPPRLPRPRPRPSKFPRP	-0.276
RRIRLRPPRLPRPRPRPSKHPRP	-0.642
RRIRLRPPRLPRPRPRPSKMPRP	-0.212
RRIRLRPPRLPRPRPRPSMAPRP	-0.0685
RRIRLRPPRLPRPRPRPSMEPRP	-0.371
RRIRLRPPRLPRPRPRPSNEPRP	-0.299
RRIRLRPPRLPRPRPRPSNMPRP	-0.406
RRIRLRPPRLPRPRPRPSREPRP	-0.104
RRIRLRPPRLPRPRPRPSTCPRP	-0.179
RRIRLRPPRLPRPRPRPSTLPRP	-0.552
RRIRLRPPRLPRPRPRPSTMPRP	-0.407
RRIRLRPPRLPRPRPRPSWCPRP	-0.277
RRIRLRPPRLPRPRPRPSYAPRP	-0.134
RRIRLRPPRLPRPRPRPSYFPRP	-0.452
RRIRLRPPRLPRPRPRPSYVPRP	-0.13

Sequence	shrunken log2 fold change
RRIRLRPPRLPRPRPRPTCGPRP	0.281
RRIRLRPPRLPRPRPRPTCTPRP	-0.0583
RRIRLRPPRLPRPRPRPTCVPRP	0.0314
RRIRLRPPRLPRPRPRPTDSPRP	2.57
RRIRLRPPRLPRPRPRPTEFPRP	0.0447
RRIRLRPPRLPRPRPRPTEGPRP	0.166
RRIRLRPPRLPRPRPRPTETPRP	-0.021
RRIRLRPPRLPRPRPRPTFAPRP	0.394
RRIRLRPPRLPRPRPRPTFEPRP	-0.336
RRIRLRPPRLPRPRPRPTGHPRP	0.0863
RRIRLRPPRLPRPRPRPTGMPRP	0.056
RRIRLRPPRLPRPRPRPTIDPRP	-0.521
RRIRLRPPRLPRPRPRPTIFPRP	0.205
RRIRLRPPRLPRPRPRPTKFPRP	-0.0571
RRIRLRPPRLPRPRPRPTKMPRP	0.0743
RRIRLRPPRLPRPRPRPTLEPRP	-0.244
RRIRLRPPRLPRPRPRPTLQPRP	0.0553
RRIRLRPPRLPRPRPRPTMAPRP	-0.283
RRIRLRPPRLPRPRPRPTMFPRP	-0.0861
RRIRLRPPRLPRPRPRPTMKPRP	-0.0755
RRIRLRPPRLPRPRPRPTPVPRP	0.559
RRIRLRPPRLPRPRPRPTQAPRP	0.507
RRIRLRPPRLPRPRPRPTQNPRP	0.404
RRIRLRPPRLPRPRPRPTQTPRP	-0.0101
RRIRLRPPRLPRPRPRPTQVPRP	0.452

Sequence	shrunken log2 fold change
RRIRLRPPRLPRPRPRPTSWPRP	0.199
RRIRLRPPRLPRPRPRPTSYPRP	-0.395
RRIRLRPPRLPRPRPRPTVQPRP	-0.191
RRIRLRPPRLPRPRPRPTVTPRP	-0.0848
RRIRLRPPRLPRPRPRPTWSPRP	0.201
RRIRLRPPRLPRPRPRPTYCPRP	-1
RRIRLRPPRLPRPRPRPVAYPRP	-0.438
RRIRLRPPRLPRPRPRPVCRPRP	0.091
RRIRLRPPRLPRPRPRPVECPRP	0.0709
RRIRLRPPRLPRPRPRPVENPRP	-0.209
RRIRLRPPRLPRPRPRPVFVPRP	-0.198
RRIRLRPPRLPRPRPRPVGEPRP	0.12
RRIRLRPPRLPRPRPRPVGLPRP	0.144
RRIRLRPPRLPRPRPRPVGQPRP	0.0826
RRIRLRPPRLPRPRPRPVGTPRP	0.00938
RRIRLRPPRLPRPRPRPVHQPRP	0.244
RRIRLRPPRLPRPRPRPVHSPRP	0.00898
RRIRLRPPRLPRPRPRPVIKPRP	-0.111
RRIRLRPPRLPRPRPRPVIQPRP	-0.0903
RRIRLRPPRLPRPRPRPVKIPRP	-0.169
RRIRLRPPRLPRPRPRPVLIPRP	-0.303
RRIRLRPPRLPRPRPRPVLKPRP	0.0956
RRIRLRPPRLPRPRPRPVMSPRP	-0.152
RRIRLRPPRLPRPRPRPVNMPRP	-0.306
RRIRLRPPRLPRPRPRPVNYPRP	-0.231

From the supplement of paper PMC9112550, “Optimization of the antimicrobial peptide Bac7 by deep mutational scanning” (BMC Biology, 2022)
